Experimental data reported in patent US12723255B2, “Herbicide tolerance genes and methods of use thereof” (priority 2014, dated 2026).

B1: MON-HT4: engineered oxygenase protein, amino acid sequence SEQ ID NO:25 (protein)
chain: MHAALTPLTNKYRFIDVQPLTGVLGAEITGVDLREPLDDSTWNEILDAFHTYQVIYFPGQAITNEQHIAFSRRFGPVDPVPLLKSIEGYPEVQMIRREANESGRVIGDDWHTDSTFLDAPPAAVVMYAREVPPYGGDTGFLSMYTAWETLSPTMQATIEGLNVVHSATRVFGSLYQAQNRRYSNTSVKVMDVDAGDRETVHPLVVSHPVTGRRALYCNQVYCQRIEGMTDAESKSLLQFLYEHATKFDFTCRVRWKKDQVLVWDNLCTMHRAVPDYAGKFRYLTRTTVAGDKPSR
B2: MON-HT6: engineered oxygenase protein, amino acid sequence SEQ ID NO:31 (protein)
chain: MHAALSPLSQKYRFIDVQPLTGVLGAEITGVTLREPLDDNTWNEILDAFHTYQVIYFPGQAITNEQHIAFSRRFGPVDPVPLLKSIEGYPEVQMIRREANESGRVIGDDWHTDSTFLDAPPAAVVMYAREVPPYGGDTGFLSMYSAWDTLSDTMKATIEGLNVVHSATRVFGSLYQAQNRRFSNTSVKVMDVDAGDRETVHPLVVSHPVTGRRALYCNQVYCQRIEGMTDAESKPLLQFLYEHATRFDFTCRVRWKKDQVLVWDNLCTMHRAVPDYAGKFRYLTRTTVAGDKPSR
B3: MON-HT5: engineered oxygenase protein, amino acid sequence SEQ ID NO:28 (protein)
chain: MHAALTPLTNKYRFIDVQPLTGVLGAEITGVDLREPLDDSTWNEILDAFHTYQVIYFPGQAITNEQHIAFSRRFGPVDPVPLLKSIEGYPEVQMIRREANESGRVIGDDWHTDSTFLDAPPAAVVMRAIEVPEYGGDTGFLSMYSAWETLSPTMQATIEGLNVVHSATKVFGSLYQATNWRFSNTSVKVMDVDAGDRETVHPLVVTHPVTGRRALYCNQVYCQKIQGMTDAESKSLLQFLYEHATKFDFTCRVRWKKDQVLVWDNLCTMHRAVPDYAGKFRYLTRTTVAGDKPSR

Assays:
Format in all cases: in vivo
F1 hybrid maize plants [1] = experiment: efficacy field trial with segregating F1 hybrid plants; conditions: CTP A; for % Injury from V4 2,4-D / % Injury from V8 2,4-D: 2,4-D amine 2× at VE-V2 (plus quizalofop-P 0.5×), V4, V8; for % Injury from V4 Quizalofop / % Injury from V8 Quizalofop: quizalofop-P 2× at VE-V2, V4, V8
Procedure, shortened: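 Field plots of segregating F1 hybrids (LH244 transformants crossed with MON89034) received either quizalofop-P 0.16 lb ai/acre + 0.25% NIS at VE-V2, V4 and V8, or 2,4-D amine 2 lb ae/acre (+ quizalofop-P 0.04 lb ai/acre at VE-V2) + NIS at VE-V2, V4, V8. Crop injury visually rated 0–100, 10–14 days after application.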

F1 hybrid maize plants [2] = experiment: efficacy field trial for quizalofop-P tolerance and clethodim sensitivity; conditions: scale 0 to 100; for average injury rating, V4 Growth Stage, 4x Quizalofop / average injury rating, V8 Growth Stage, 4x Quizalofop: 0.32 lb ai/acre at VE-V2, V4, V8; for average injury rating, V4 Growth Stage, 4x Quizalofop / average injury rating, V8 Growth Stage, 4x Quizalofop / average injury rating, V4 Growth Stage, 8x Quizalofop / average injury rating, V8 Growth Stage, 8x Quizalofop / average injury rating, V4 Growth Stage, 16x Quizalofop / average injury rating, V8 Growth Stage, 16x Quizalofop: with CTP unless label says no CTP; for average injury rating, V4 Growth Stage, 8x Quizalofop / average injury rating, V8 Growth Stage, 8x Quizalofop: 0.64 lb ai/acre at VE-V2, V4, V8; for average injury rating, V4 Growth Stage, 16x Quizalofop / average injury rating, V8 Growth Stage, 16x Quizalofop: 1.28 lb ai/acre at VE-V2, V4, V8; for average injury rating, V8 Growth Stage, 1x Clethodim: clethodim 0.25 lb ai/acre at V8, volunteer control
Procedure, shortened: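 F1 hybrids of MON89034 × R1 plants carrying MON-HT constructs, NK603×MON89034 control, at two sites. Quizalofop-P at 0.32, 0.64 or 1.28 lb ai/acre + 0.25% v/v NIS at VE-V2, V4 and V8; clethodim 0.25 lb ai/acre + NIS at V8. Injury rated visually 0–100 at 10-14 days after application.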

F1 hybrid maize plants [3] = experiment: efficacy field trial for 2,4-D tolerance; conditions: scale 0 to 100, with CTP unless label says no CTP; for average injury rating, V4 Growth Stage, 2x 2,4-D / average injury rating, V8 Growth Stage, 2x 2,4-D: 2 lb ae/acre at VE-V2, V4, V8; for average injury rating, V4 Growth Stage, 4x 2,4-D / average injury rating, V8 Growth Stage, 4x 2,4-D: 4 lb ae/acre at VE-V2, V4, V8; for average injury rating, V4 Growth Stage, 8x 2,4-D / average injury rating, V8 Growth Stage, 8x 2,4-D: 8 lb ae/acre at VE-V2, V4, V8; for average injury rating, V4 Growth Stage, 16x 2,4-D / average injury rating, V8 Growth Stage, 16x 2,4-D: 16 lb ae/acre at VE-V2, V4, V8
Procedure, shortened: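 F1 hybrid maize carrying MON89034 crossed with MON-HT events, NK603×MON89034 hybrids as control, grown at two field locations. 2,4-D amine at 2, 4, 8 or 16 lb ac/acre plus 0.25% v/v NIS applied at VE-V2, V4 and V8; plots visually rated for injury after V4 and V8 applications.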

Row | Molecule | % Injury from V4 2,4-D (F1 hybrid maize plants [1]) [%] | % Injury from V8 2,4-D (F1 hybrid maize plants [1]) [%] | % Injury from V4 Quizalofop (F1 hybrid maize plants [1]) [%] | % Injury from V8 Quizalofop (F1 hybrid maize plants [1]) [%] | average injury rating, V4 Growth Stage, 4x Quizalofop (F1 hybrid maize plants [2]) | average injury rating, V8 Growth Stage, 4x Quizalofop (F1 hybrid maize plants [2]) | average injury rating, V4 Growth Stage, 8x Quizalofop (F1 hybrid maize plants [2]) | average injury rating, V8 Growth Stage, 8x Quizalofop (F1 hybrid maize plants [2]) | average injury rating, V4 Growth Stage, 16x Quizalofop (F1 hybrid maize plants [2]) | average injury rating, V8 Growth Stage, 16x Quizalofop (F1 hybrid maize plants [2]) | average injury rating, V8 Growth Stage, 1x Clethodim (F1 hybrid maize plants [2]) | average injury rating, V4 Growth Stage, 2x 2,4-D (F1 hybrid maize plants [3]) | average injury rating, V8 Growth Stage, 2x 2,4-D (F1 hybrid maize plants [3]) | average injury rating, V4 Growth Stage, 4x 2,4-D (F1 hybrid maize plants [3]) | average injury rating, V8 Growth Stage, 4x 2,4-D (F1 hybrid maize plants [3]) | average injury rating, V4 Growth Stage, 8x 2,4-D (F1 hybrid maize plants [3]) | average injury rating, V8 Growth Stage, 8x 2,4-D (F1 hybrid maize plants [3]) | average injury rating, V4 Growth Stage, 16x 2,4-D (F1 hybrid maize plants [3]) | average injury rating, V8 Growth Stage, 16x 2,4-D (F1 hybrid maize plants [3])
1 | B1 | 22.3 | 12.3 | 6.1 | 0 | 2.8 | 3.3 | 3.3 | 3.3 | 13.8 | 8.0 | 94.5 | 0.0 | 2.0 | 1.3 | 8.8 | 8.8 | 12.5 | 18.8 | 21.3
2 | B2 | 27 | 12.7 | 8 | 1.7 | 0.0 | 1.3 | 1.3 | 2.0 | 2.8 | 5.0 | 93.3 | 0.0 | 6.3 | 2.0 | 4.3 | 5.8 | 11.3 | 8.8 | 12.5
3 | B3 | 27.2 | 17.4 | 6.8 | 1.7 | 1.3 | 2.5 | 4.5 | 0.0 | 4.5 | 8.0 | 92.0 | 2.5 | 3.3 | 2.5 | 4.0 | 7.5 | 10.0 | 17.5 | 21.3
